Test results reported in publication PMC5735849.

Experiments:
[1] = molecular target: T1, NP (ΔNPNTD) NTD (Zaire ebolavirus), P18272; settings: modification not given
T1 chain: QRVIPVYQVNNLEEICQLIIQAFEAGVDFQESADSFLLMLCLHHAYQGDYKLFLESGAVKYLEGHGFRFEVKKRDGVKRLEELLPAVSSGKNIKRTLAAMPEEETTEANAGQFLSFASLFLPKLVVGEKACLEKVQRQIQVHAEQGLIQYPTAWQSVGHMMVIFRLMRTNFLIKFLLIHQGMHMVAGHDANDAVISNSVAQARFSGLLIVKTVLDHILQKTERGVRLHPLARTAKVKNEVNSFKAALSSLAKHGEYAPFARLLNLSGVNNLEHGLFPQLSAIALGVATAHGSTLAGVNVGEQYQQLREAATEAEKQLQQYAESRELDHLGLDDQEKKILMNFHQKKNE

[2] = molecular target: T1, NP (ΔNPNTD) NTD (Zaire ebolavirus), …; test: competition; settings: modification not given

MPGPELSGWISEQLMTGRIPVSDIFCDIE [VP35 NPBP 20-48, Q05127] gave a Kd [1] of 32 nM and an IC50 [2] of 262 nM.
